Entries after “also recorded” stand apart in the source; their conditions may differ.
Legend:
[1] = system: Zmax/LRP5-mediated Wnt signaling; test: Xenopus embryo assay, hDkk-1 modulation of Zmax/LRP5+Wnt5a signaling; format: in vivo; conditions: hDkk-1 250 pg, FIG. 11
Protocol: mRNA for microinjection into Xenopus embryos is generated by in vitro transcription using the CDNA constructs in the pCS2^+ vector described above as template. RNA is synthesized using the Ambion mMessage mMachine high yield capped RNA transcription kit (Cat. #1340) following the manufacturer's specifications for the Sp6 polymerase reactions. RNA products were brought up to a final volume of 50 μl in sterile, glass-distilled water and purified over Quick Spin-Columns for Radiolabelled RNA Purification G50-Sephadex (Roche, Cat. #1274015) following the manufacturer's specifications. The resulting eluate was finally extracted with phenol:chloroform:isoamyl alcohol and isopropanol precipitated using standard protocols (Sambrook et al., 1989). Final RNA volumes were approximately 50 μl. RNA concentration was determined by absorbance values at 260 nm and 280 nm. RNA integrity was visualized by ethidium bromide staining of denaturing (formaldehyde) agarose gel electrophoresis (Sambrook et al., 1989). Various amounts of RNA (2 pg to 1 ng) are injected into the ventral blastomere of the 4- or 8-cell Xenopus embryo. These protocols are described in Moon et al., Technique-J. of Methods in Cell and Mol. Biol. 1: 76-89 (1989), and Peng, Meth. Cell. Biol. 36: 657-62 (1991). […]

LRP5 = target: T1, LRP5 (Homo sapiens, UniProt O75197); test: TCF-luciferase assay in HOB-03-CE6 cells, LRP5; format: cell-based
T1 construct: Site-directed mutants of LRP5 were generated in the full-length human LRP5 cDNA; expressed in transfected cells; host or cells: HOB-03-CE6 osteoblastic cells; U2OS osteosarcoma cells; HEK293
Protocol: HOB-03-CE6 osteoblastic cells developed by Wyeth Ayerst (Philadelphia, Pa.) were seeded into 24-well plates at 150,000 cells per well in 1 ml of the growth media (D-MEM/F12 phenol red-free) containing 10% (v/v) heat-inactivated FBS, 1×penicillin streptomycin, and 1X Glutamax-1, and incubated overnight at 34° C. The following day, the cells were transfected using Lipofectamine 2000® (as described by the manufacturer, Invitrogen) in OptiMEM (Invitrogen) with 0.35 μg/well of LRP5, HBM, or control plasmid DNA (empty vector pcDNA3.1) and either Wnt1 or Wnt3 a plasmid DNA. Similar experiments were performed with LRP6 plasmid DNA (0.35 μg/well) or a control pEDdpc4 empty vector. […] All wells were transfected with 0.025 μg/well of CMV beta-galactosidase plasmid DNA and 0.35 μg/well 16X TCF(ASyluciferase reporter DNA (developed by Ramesh Bhat, Wyeth-Ayerst (Philadelphia, Pa.)). After 4 hours of incubation, the cells were rinsed and 1 ml of fresh growth media was added to each well. The cells were cultured overnight at 34° C., followed by a wash and a change of media. Cells were cultured for an additional 18-24 hours at 37° C. Cells were then lysed with 50 μl/well of 1X lysis buffer. The extracts were assayed for beta-galactosidase activity (Galacto Reaction Buffer Diluent & Light Emission Accelerator, Tropix) using 5 μl extract+50 μl beta-galactosidase diluent and luciferase activity (Luciferase Assay Reagent, Promega) using 20 μl extract.

LRP6 = LRP6 (Homo sapiens, UniProt O75581); test: Cell-based TCF reporter high-throughput assay, LRP6 cDNA; parameters: Full length LRP6 was isolated from the pED6dpc4 vector; expressed in transfected cells; host or cells: HOB-03-CE6 osteoblastic cells; U2OS osteosarcoma cells; HEK293; conditions: U2OS cells, Wnt1 or Wnt3a/Wnt1 co-transfected, FIG. 20
Source text: To develop a high throughput assay, the TCF-luciferase assay described in Example 7 was modified utilizing low level expression of endogenous LRP5/6 in U2OS and HEK293 cells. However, HOB-03-CE6 cells and any other cells which show a differential response to Dkk depending on whether LRP5, LRP6 or HBM are expressed. Using U2OS (human osteosarcoma) and HEK293 (ATCC) cells, the TCF-luciferase and tk-Renilla reporter element constructs were co-transfected along with Wnt3a/1 and Dkk. Wnt3a alone, by using endogenous LRP5/6, was able to stimulate TCF reporter gene activation. When Dkk, is co-transfected with Wnt3a/Wnt 1 and reporters (TCF-luci and tk-Renilla), DEkk represses reporter element activity. In addition, the TCF-luci signal is activated by Wnt3a/Wnt1 can be repressed by the addition of Dkk-enriched conditioned media to the cells containing Wnt3a/Wnt1 and reporters.
The Dkk-mediated repression of the reporter is dependent upon the concentration of transfected Dkk cDNA or on the amount of Dkk-conditioned media added. In addition, the Dkk-mediated reporter suppression can be altered by the co-transfection of LRP5, LRP6, and HBM cDNAs in the U2OS or HEK293 cells. In general, U2OS cells show greater sensitivity to Dkk-mediated reporter suppression than that in HEK-293 cells. […]

T1 sequence (O75197 32-1615): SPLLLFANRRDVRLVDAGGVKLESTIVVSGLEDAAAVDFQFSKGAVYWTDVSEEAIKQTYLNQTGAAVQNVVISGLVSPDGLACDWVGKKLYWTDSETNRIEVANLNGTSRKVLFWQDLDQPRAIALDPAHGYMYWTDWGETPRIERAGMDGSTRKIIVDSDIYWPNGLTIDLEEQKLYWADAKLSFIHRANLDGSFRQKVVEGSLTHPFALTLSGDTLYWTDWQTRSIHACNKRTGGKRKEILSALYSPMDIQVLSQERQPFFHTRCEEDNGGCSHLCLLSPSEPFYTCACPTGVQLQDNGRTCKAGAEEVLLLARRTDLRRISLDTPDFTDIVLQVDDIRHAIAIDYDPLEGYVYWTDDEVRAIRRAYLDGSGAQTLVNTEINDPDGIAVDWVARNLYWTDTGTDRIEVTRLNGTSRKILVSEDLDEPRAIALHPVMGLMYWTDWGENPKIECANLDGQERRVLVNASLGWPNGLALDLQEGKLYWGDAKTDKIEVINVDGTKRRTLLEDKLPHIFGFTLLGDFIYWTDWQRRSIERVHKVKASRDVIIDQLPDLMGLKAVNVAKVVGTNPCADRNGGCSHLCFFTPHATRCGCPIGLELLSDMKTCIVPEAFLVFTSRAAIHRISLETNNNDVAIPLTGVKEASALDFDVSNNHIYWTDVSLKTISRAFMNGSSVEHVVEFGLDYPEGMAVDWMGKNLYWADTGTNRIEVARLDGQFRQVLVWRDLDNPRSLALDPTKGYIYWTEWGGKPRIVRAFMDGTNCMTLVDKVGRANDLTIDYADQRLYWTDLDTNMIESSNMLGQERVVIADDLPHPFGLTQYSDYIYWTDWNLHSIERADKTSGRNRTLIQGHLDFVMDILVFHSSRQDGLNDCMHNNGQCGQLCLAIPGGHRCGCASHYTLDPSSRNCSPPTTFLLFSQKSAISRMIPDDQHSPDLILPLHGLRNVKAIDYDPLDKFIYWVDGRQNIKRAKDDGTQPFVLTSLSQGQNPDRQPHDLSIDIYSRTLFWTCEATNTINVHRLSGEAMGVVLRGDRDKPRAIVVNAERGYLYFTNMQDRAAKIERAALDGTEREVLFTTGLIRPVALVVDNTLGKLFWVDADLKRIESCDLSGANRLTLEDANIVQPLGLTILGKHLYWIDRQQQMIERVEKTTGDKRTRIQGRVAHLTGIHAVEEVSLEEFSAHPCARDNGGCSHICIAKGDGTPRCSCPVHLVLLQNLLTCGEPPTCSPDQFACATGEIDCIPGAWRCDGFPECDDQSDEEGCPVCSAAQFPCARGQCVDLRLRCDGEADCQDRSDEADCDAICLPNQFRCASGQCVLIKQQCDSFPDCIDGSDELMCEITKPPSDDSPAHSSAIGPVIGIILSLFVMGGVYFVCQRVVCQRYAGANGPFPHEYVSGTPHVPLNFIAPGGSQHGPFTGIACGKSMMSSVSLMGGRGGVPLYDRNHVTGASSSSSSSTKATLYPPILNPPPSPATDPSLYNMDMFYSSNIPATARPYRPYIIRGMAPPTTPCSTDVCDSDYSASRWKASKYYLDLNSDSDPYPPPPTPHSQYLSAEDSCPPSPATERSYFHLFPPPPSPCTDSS
LRP6, sequence (O75581 20-1613): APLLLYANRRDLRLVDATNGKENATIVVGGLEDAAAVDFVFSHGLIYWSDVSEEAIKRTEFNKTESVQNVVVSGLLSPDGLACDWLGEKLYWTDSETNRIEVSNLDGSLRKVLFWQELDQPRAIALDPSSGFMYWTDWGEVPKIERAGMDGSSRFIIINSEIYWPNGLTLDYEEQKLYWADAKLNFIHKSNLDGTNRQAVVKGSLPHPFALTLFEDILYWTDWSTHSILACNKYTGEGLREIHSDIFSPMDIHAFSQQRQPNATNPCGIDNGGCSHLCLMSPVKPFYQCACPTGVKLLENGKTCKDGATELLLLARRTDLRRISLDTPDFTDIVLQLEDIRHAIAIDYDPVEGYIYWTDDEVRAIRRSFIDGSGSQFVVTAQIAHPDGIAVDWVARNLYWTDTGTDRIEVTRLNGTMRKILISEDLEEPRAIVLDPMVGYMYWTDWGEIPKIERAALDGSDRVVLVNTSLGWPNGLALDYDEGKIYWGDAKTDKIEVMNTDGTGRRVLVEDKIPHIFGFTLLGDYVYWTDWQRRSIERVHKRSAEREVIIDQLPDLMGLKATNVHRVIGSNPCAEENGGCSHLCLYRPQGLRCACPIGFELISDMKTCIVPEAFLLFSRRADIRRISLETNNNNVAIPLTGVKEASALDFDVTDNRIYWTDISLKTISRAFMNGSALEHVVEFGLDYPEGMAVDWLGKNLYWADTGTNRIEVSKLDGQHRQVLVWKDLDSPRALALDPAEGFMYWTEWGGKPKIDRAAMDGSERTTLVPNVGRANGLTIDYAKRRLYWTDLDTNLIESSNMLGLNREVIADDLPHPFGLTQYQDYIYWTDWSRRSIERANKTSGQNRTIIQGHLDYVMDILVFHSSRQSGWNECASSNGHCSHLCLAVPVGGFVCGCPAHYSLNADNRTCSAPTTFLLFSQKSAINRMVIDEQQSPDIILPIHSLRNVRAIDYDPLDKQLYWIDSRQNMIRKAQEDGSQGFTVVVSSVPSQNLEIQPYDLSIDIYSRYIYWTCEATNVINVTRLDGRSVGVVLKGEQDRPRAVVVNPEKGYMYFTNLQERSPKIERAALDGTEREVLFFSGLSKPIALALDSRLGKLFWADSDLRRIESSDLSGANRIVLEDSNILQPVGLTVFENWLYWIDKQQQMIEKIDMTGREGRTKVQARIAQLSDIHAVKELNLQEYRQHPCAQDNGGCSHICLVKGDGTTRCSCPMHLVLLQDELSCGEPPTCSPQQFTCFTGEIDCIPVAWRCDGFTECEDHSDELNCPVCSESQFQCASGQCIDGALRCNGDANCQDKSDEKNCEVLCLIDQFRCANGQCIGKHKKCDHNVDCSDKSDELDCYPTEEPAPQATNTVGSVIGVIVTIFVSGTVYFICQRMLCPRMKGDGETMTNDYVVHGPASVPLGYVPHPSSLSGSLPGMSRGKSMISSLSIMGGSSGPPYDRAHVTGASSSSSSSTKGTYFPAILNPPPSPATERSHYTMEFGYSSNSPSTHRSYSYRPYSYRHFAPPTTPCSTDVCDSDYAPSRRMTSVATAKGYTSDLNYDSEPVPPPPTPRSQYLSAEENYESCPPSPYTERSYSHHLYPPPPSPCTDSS

## Dkk-1: Dickkopf-1 protein, antagonist of the Wnt pathway; expressed from human cDNA (RNA or plasmid)
[1]
  repression of Zmax/LRP5-mediated Wnt signaling: repressed
LRP5; Wnt1, FIG. 14
  LRP5/Wnt1 mediated TCF-luciferase activity: significantly antagonized TCF-luciferase activity; also recorded: had no effect on LRP5 or HBM mediated TCF-luciferase activity
LRP5; Wnt3a, FIG. 15
  LRP5/Wnt3a mediated TCF-luciferase activity: able to antagonize LRP5/Wnt3a
LRP6
  Dkk-mediated repression of LRP6 signaling (TCF reporter): represses
LRP6; listed as Dkk1
  Dkk-mediated repression of LRP6 signaling (TCF reporter): maximal

Source: US7700101B2, “Reagents and method for modulating Dkk-mediated interactions” (Wyeth, priority 2001, dated 2010)
